In paper PMC9510068:

Target: Bac S-2P (S-2P from the baculovirus-insect cell expression system, TN-5B1-4 cells) (SARS-CoV-2)
Experiment: negative-stain EM

Bac S-2P (S-2P from the baculovirus-insect cell expression system, TN-5B1-4 cells) (domain or fragment)
stoichiometry N: 3
